These results are taken from patent US20230212239A1, “INHIBITORS OF CBL AUTOINHIBITION AND RELATED METHODS” (THE HOSPITAL FOR SICK CHILDREN, priority 2020, published 2023).

Substitutions are numbered along the chain they refer to.

In one experiment the target is T1, CBL (47-357) A223R (UniProt P22681 47-357).
T1 construct: range 47-357; Point mutant within Duet-His-Δlinker-hSLAP2-CBL; also called A223R (CBL mutant)
T1 sequence (looked up): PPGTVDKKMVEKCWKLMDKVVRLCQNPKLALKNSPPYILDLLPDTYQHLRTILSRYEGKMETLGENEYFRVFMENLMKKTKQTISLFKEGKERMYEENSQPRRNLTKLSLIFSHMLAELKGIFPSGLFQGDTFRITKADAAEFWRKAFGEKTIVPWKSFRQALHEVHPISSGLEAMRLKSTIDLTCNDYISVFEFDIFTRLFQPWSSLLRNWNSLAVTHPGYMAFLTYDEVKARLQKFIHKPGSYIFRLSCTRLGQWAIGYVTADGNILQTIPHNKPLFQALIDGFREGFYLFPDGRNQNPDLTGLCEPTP
The experiment is described as follows: Ni-NTA co-purification, low salt (0.15 M NaCl), Coomassie SDS-PAGE. The procedure:
(§1) Cell pellets were resuspended in either high or low salt (as for high salt except 25 mM HEPEs pH 7.5, 150 mM NaCl) lysis buffer and purified as above on Ni-NTA agarose (Qiagen) with wash buffer (25 mM HEPEs pH 7.5, 150 mM NaCl, 2% glycerol, 20 mM imidazole, 10 mM βME). Bead slurry was mixed with SDS 2X loading buffer (125 mM Tris pH 6.8, 4% SDS, 20% glycerol, 0.715 M βME, bromophenol blue), boiled, and analyzed by 10 or 12.5% SDS-PAGE, stained with Coomassie blue.

Experiment [1] addresses T2, CBL (47-357), co-expressed from pETDuet-1 MCS2 (UniProt P22681 47-357).
T2 construct: range 47-357; Untagged partner in the Duet co-purification trials; also called CBL TKBD
T2 sequence (looked up): T1 sequence (looked up) with R177A
Briefly: Ni-NTA co-purification from Duet co-expression, high salt (0.5 M NaCl), Coomassie SDS-PAGE. As for the experimental part:
as §1

The next experiment deals with T3, CBL (47-357) S226E (UniProt P22681 47-357).
T3 construct: range 47-357; Point mutant within Duet-His-Δlinker-hSLAP2-CBL; also called S226E (CBL mutant)
T3 sequence (looked up): T1 sequence (looked up) with R177A, S180E
Briefly: Ni-NTA co-purification, low salt (0.15 M NaCl), Coomassie SDS-PAGE. As for the experimental part:
as §1

B1: Trx-His(6)-Δlinker-hSLAP2 L241R (other)
chain: EAERSKATAVALGSFPAGGPAELSLRLGEPLTIVSEDGDWWTVLSEVSGREYNIPSVHVAKVSHGWLYEGLSREKAEELLLLPGNPGGAFLIRESQTRRGSYSLSVRLSRPASWDRIRHYRIHCLDNGWLYISPRLTFPSLQALVDHYSELADDICCLLKEPCVLQRAGPLPGKDIPLPVTVQRTPLNWKELDSSLLFSEAATGEESLLSEGRRESLSFYISLNDEAVSLDDA
notes: Point mutant within Duet-His-Δlinker-hSLAP2-CBL; not shown: N-terminal thioredoxin (Trx)-His(6)-TEV-site tag and linker of the modified pET32a (Δlinker version)
As to B1, the binding result (with CBL (47-357) A223R; in experiment [1]) was “no binding” throughout.

B2: Trx-His(6)-Δlinker-hSLAP2 S244E (other)
chain: B1 chain with R213L, S216E
notes: as for B1
Regarding B2, the binding result with CBL (47-357) S226E was “no binding”.
